Assay results as given in the supplement of paper PMC10567573.

B1: ANKRD44 (parent)
chain: FHCIETLVTTGANVNETDDWGRTA

Variants of: B1
Assay: protein stability index of a GFP-peptide fusion (GPS, HEK-293T) (PSI 1-6); higher = more stable
Details: c terminus: a fixed tail appended
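Further: lentivirally expressed fusions sorted by FACS into six bins by GFP to DsRed ratio, PSI derived from sequencing read proportions per bin multiplied by bin number.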

| Variant | protein stability index |
| --- | --- |
| FHCIETLVQTGANVNETDDWGRTA | 2.63 |
| FHCIETLVVTGANVNETDDWGRTA | 1.6 |
| FHCIETLVETGANVNETDDWGRTA | 3.12 |
| FHCIETLVLTGANVNETDDWGRTA | 1.77 |
| FHCIETLVPTGANVNETDDWGRTA | 2.06 |
| FHCIETLVFTGANVNETDDWGRTA | 1.25 |
| FHCIETLVITGANVNETDDWGRTA | 2.67 |
| FHCIETLVGTGANVNETDDWGRTA | 2.7 |
| FHCIETLVHTGANVNETDDWGRTA | 2.18 |
| FHCIETLVNTGANVNETDDWGRTA | 2.56 |
| FHCIETLVDTGANVNETDDWGRTA | 3.26 |
| FHCIETLVMTGANVNETDDWGRTA | 1.45 |
| FHCIETLVRTGANVNETDDWGRTA | 1.86 |
| FHCIETLVSTGANVNETDDWGRTA | 2.23 |
| FHCIETLVCTGANVNETDDWGRTA | 1.78 |
| FHCIETLVYTGANVNETDDWGRTA | 1.54 |
| FHCIETLVATGANVNETDDWGRTA | 2.01 |
| FHCIETLVKTGANVNETDDWGRTA | 2.83 |
| FHCIETLVTTRANVNETDDWGRTA | 2.6 |
| FHCIETLVTTQANVNETDDWGRTA | 1.74 |
| FHCIETLVTTHANVNETDDWGRTA | 1.53 |
| FHCIETLVTTNANVNETDDWGRTA | 2 |
| FHCIETLVTTPANVNETDDWGRTA | 2.23 |
| FHCIETLVTTYANVNETDDWGRTA | 2.39 |

| Variant | protein stability index |
| --- | --- |
| FHCIETLVTTDANVNETDDWGRTA | 2.88 |
| FHCIETLVTTTANVNETDDWGRTA | 2.29 |
| FHCIETLVTTAANVNETDDWGRTA | 1.79 |
| FHCIETLVTTLANVNETDDWGRTA | 2.44 |
| FHCIETLVTTVANVNETDDWGRTA | 2.09 |
| FHCIETLVTTWANVNETDDWGRTA | 2.99 |
| FHCIETLVTTSANVNETDDWGRTA | 1.68 |
| FHCIETLVTTMANVNETDDWGRTA | 1.5 |
| FHCIETLVTTCANVNETDDWGRTA | 2.09 |
| FHCIETLVTTKANVNETDDWGRTA | 2.29 |
| FHCIETLVTTIANVNETDDWGRTA | 2.62 |
| FHCIETLVTTEANVNETDDWGRTA | 2.94 |
| FHCIETLVTTFANVNETDDWGRTA | 1.47 |
| FHCIETFVTTGANVNETDDWGRTA | 2.86 |
| FHCIETYVTTGANVNETDDWGRTA | 3.58 |
| FHCIETAVTTGANVNETDDWGRTA | 2.2 |
| FHCIETVVTTGANVNETDDWGRTA | 2.19 |
| FHCIETHVTTGANVNETDDWGRTA | 2.56 |
| FHCIETIVTTGANVNETDDWGRTA | 2.23 |
| FHCIETCVTTGANVNETDDWGRTA | 2.01 |
| FHCIETEVTTGANVNETDDWGRTA | 3.82 |
| FHCIETQVTTGANVNETDDWGRTA | 2.49 |
| FHCIETSVTTGANVNETDDWGRTA | 2.57 |
| FHCIETKVTTGANVNETDDWGRTA | 2.89 |

| Variant | protein stability index |
| --- | --- |
| FHCIETGVTTGANVNETDDWGRTA | 2.42 |
| FHCIETDVTTGANVNETDDWGRTA | 4.03 |
| FHCIETRVTTGANVNETDDWGRTA | 2.66 |
| FHCIETNVTTGANVNETDDWGRTA | 3.08 |
| FHCIETPVTTGANVNETDDWGRTA | 3.04 |
| FHCIETTVTTGANVNETDDWGRTA | 2.85 |
| FHCIETMVTTGANVNETDDWGRTA | 2.19 |
| FHCIETLVTTGHNVNETDDWGRTA | 2.1 |
| FHCIETLVTTGMNVNETDDWGRTA | 2.14 |
| FHCIETLVTTGFNVNETDDWGRTA | 2.61 |
| FHCIETLVTTGNNVNETDDWGRTA | 2.07 |
| FHCIETLVTTGKNVNETDDWGRTA | 2.07 |
| FHCIETLVTTGLNVNETDDWGRTA | 2.45 |
| FHCIETLVTTGSNVNETDDWGRTA | 2.73 |
| FHCIETLVTTGCNVNETDDWGRTA | 1.1 |
| FHCIETLVTTGPNVNETDDWGRTA | 1.81 |
| FHCIETLVTTGINVNETDDWGRTA | 1.7 |
| FHCIETLVTTGVNVNETDDWGRTA | 1.59 |
| FHCIETLVTTGENVNETDDWGRTA | 2.31 |
| FHCIETLVTTGDNVNETDDWGRTA | 1.87 |
| FHCIETLVTTGQNVNETDDWGRTA | 2.09 |
| FHCIETLVTTGRNVNETDDWGRTA | 2.33 |
| FHCIETLVTTGGNVNETDDWGRTA | 1.52 |
| FHCIETLVTTGYNVNETDDWGRTA | 1.88 |

| Variant | protein stability index |
| --- | --- |
| FHCIETLVTTGTNVNETDDWGRTA | 2.82 |
| FHCIETLVTTGWNVNETDDWGRTA | 3.07 |
| FHCIETLVTTGAYVNETDDWGRTA | 1.68 |
| FHCIETLVTTGAHVNETDDWGRTA | 2.13 |
| FHCIETLVTTGADVNETDDWGRTA | 2.51 |
| FHCIETLVTTGAQVNETDDWGRTA | 2.3 |
| FHCIETLVTTGALVNETDDWGRTA | 2.11 |
| FHCIETLVTTGAGVNETDDWGRTA | 2.21 |
| FHCIETLVTTGASVNETDDWGRTA | 2.39 |
| FHCIETLVTTGAFVNETDDWGRTA | 3.16 |
| FHCIETLVTTGAIVNETDDWGRTA | 2.31 |
| FHCIETLVTTGAMVNETDDWGRTA | 1.5 |
| FHCIETLVTTGATVNETDDWGRTA | 2.18 |
| FHCIETLVTTGACVNETDDWGRTA | 1.59 |
| FHCIETLVTTGAEVNETDDWGRTA | 1.69 |
| FHCIETLVTTGARVNETDDWGRTA | 2.1 |
| FHCIETLVTTGAWVNETDDWGRTA | 1.77 |
| FHCIETLVTTGAPVNETDDWGRTA | 2.41 |
| FHCIETLVTTGAVVNETDDWGRTA | 2.61 |
| FHCIETLVTTGAKVNETDDWGRTA | 2.36 |
| FHCIETLVTTGAAVNETDDWGRTA | 2.56 |
| FHCIETLRTTGANVNETDDWGRTA | 2.15 |
| FHCIETLQTTGANVNETDDWGRTA | 3 |
| FHCIETLATTGANVNETDDWGRTA | 2.05 |

| Variant | protein stability index |
| --- | --- |
| FHCIETLLTTGANVNETDDWGRTA | 1.4 |
| FHCIETLKTTGANVNETDDWGRTA | 2.42 |
| FHCIETLGTTGANVNETDDWGRTA | 1.89 |
| FHCIETLFTTGANVNETDDWGRTA | 2.26 |
| FHCIETLNTTGANVNETDDWGRTA | 2.86 |
| FHCIETLCTTGANVNETDDWGRTA | 2.03 |
| FHCIETLETTGANVNETDDWGRTA | 3.35 |
| FHCIETLITTGANVNETDDWGRTA | 1.8 |
| FHCIETLPTTGANVNETDDWGRTA | 3.48 |
| FHCIETLMTTGANVNETDDWGRTA | 2.2 |
| FHCIETLDTTGANVNETDDWGRTA | 3.76 |
| FHCIETLTTTGANVNETDDWGRTA | 2.29 |
| FHCIETLSTTGANVNETDDWGRTA | 3.12 |
| FHCIETLYTTGANVNETDDWGRTA | 2.27 |
| FHCIETLHTTGANVNETDDWGRTA | 2.45 |
| FHCIESLVTTGANVNETDDWGRTA | 2.71 |
| FHCIEWLVTTGANVNETDDWGRTA | 3.88 |
| FHCIEYLVTTGANVNETDDWGRTA | 3.59 |
| FHCIEVLVTTGANVNETDDWGRTA | 3.28 |
| FHCIERLVTTGANVNETDDWGRTA | 1.96 |
| FHCIETLVTVGANVNETDDWGRTA | 2.17 |
| FHCIETLVTNGANVNETDDWGRTA | 2.66 |
| FHCIETLVTWGANVNETDDWGRTA | 2.68 |
| FHCIETLVTHGANVNETDDWGRTA | 2.08 |

| Variant | protein stability index |
| --- | --- |
| FHCIETLVTPGANVNETDDWGRTA | 2.36 |
| FHCIETLVTYGANVNETDDWGRTA | 2.14 |
| FHCIETLVTCGANVNETDDWGRTA | 1.96 |
| FHCIETLVTIGANVNETDDWGRTA | 1.7 |
| FHCIETLVTKGANVNETDDWGRTA | 2.24 |
| FHCIETLVTSGANVNETDDWGRTA | 2.08 |
| FHCIETLVTDGANVNETDDWGRTA | 3.46 |
| FHCIETLVTQGANVNETDDWGRTA | 2.63 |
| FHCIETLVTEGANVNETDDWGRTA | 2.37 |
| FHCIETLVTRGANVNETDDWGRTA | 2.34 |
| FHCIETLVTGGANVNETDDWGRTA | 1.92 |
| FHCIETLVTLGANVNETDDWGRTA | 1.65 |
| FHCIETLVTAGANVNETDDWGRTA | 1.72 |
| FHCIETLVTMGANVNETDDWGRTA | 1.71 |
| FHCIETLVTTGANVDETDDWGRTA | 2.29 |
| FHCIETLVTTGANVVETDDWGRTA | 2 |
| FHCIETLVTTGANVQETDDWGRTA | 2.18 |
| FHCIETLVTTGANVSETDDWGRTA | 1.64 |
| FHCIETLVTTGANVIETDDWGRTA | 1.54 |
| FHCIETLVTTGANVRETDDWGRTA | 2.01 |
| FHCIETLVTTGANVWETDDWGRTA | 2.14 |
| FHCIETLVTTGANVTETDDWGRTA | 3.27 |
| FHCIETLVTTGANVYETDDWGRTA | 1.96 |
| FHCIETLVTTGANVAETDDWGRTA | 1.76 |

| Variant | protein stability index |
| --- | --- |
| FHCIETLVTTGANVMETDDWGRTA | 1.69 |
| FHCIETLVTTGANVHETDDWGRTA | 2.17 |
| FHCIETLVTTGANVCETDDWGRTA | 1.9 |
| FHCIETLVTTGANVPETDDWGRTA | 2.34 |
| FHCIETLVTTGANVEETDDWGRTA | 2.13 |
| FHCIETLVTTGANVGETDDWGRTA | 1.85 |
| FHCIETLVTTGANVFETDDWGRTA | 1.96 |
| FHCIETLVTTGANVLETDDWGRTA | 2.21 |
| FHCIETLVTTGANVKETDDWGRTA | 2.44 |
| FHCIETLVTTGANRNETDDWGRTA | 2.61 |
| FHCIETLVTTGANYNETDDWGRTA | 1.77 |
| FHCIETLVTTGANENETDDWGRTA | 3.04 |
| FHCIETLVTTGANWNETDDWGRTA | 1.54 |
| FHCIETLVTTGANSNETDDWGRTA | 2.41 |
| FHCIETLVTTGANQNETDDWGRTA | 2.11 |
| FHCIETLVTTGANCNETDDWGRTA | 2.19 |
| FHCIETLVTTGANMNETDDWGRTA | 2.07 |
| FHCIETLVTTGANINETDDWGRTA | 1.82 |
| FHCIETLVTTGANGNETDDWGRTA | 1.86 |
| FHCIETLVTTGANNNETDDWGRTA | 3 |
| FHCIETLVTTGANKNETDDWGRTA | 2.31 |
| FHCIETLVTTGANDNETDDWGRTA | 2.26 |
| FHCIETLVTTGANFNETDDWGRTA | 2.14 |
| FHCIETLVTTGANTNETDDWGRTA | 2.93 |

| Variant | protein stability index |
| --- | --- |
| FHCIETLVTTGANHNETDDWGRTA | 1.94 |
| FHCIETLVTTGANANETDDWGRTA | 2.2 |
| FHCIETLVTTGANPNETDDWGRTA | 2.71 |
| FHCIETLVTTGANLNETDDWGRTA | 2.08 |
| FHCIETLVTTGANVNKTDDWGRTA | 2.5 |
| FHCIETLVTTGANVNITDDWGRTA | 1.52 |
| FHCIETLVTTGANVNTTDDWGRTA | 1.53 |
| FHCIETLVTTGANVNDTDDWGRTA | 2.17 |
| FHCIETLVTTGANVNSTDDWGRTA | 1.78 |
| FHCIETLVTTGANVNLTDDWGRTA | 1.8 |
| FHCIETLVTTGANVNPTDDWGRTA | 2 |
| FHCIETLVTTGANVNHTDDWGRTA | 2.32 |
| FHCIETLVTTGANVNQTDDWGRTA | 1.45 |
| FHCIETLVTTGANVNGTDDWGRTA | 1.79 |
| FHCIETLVTTGANVNCTDDWGRTA | 2.16 |
| FHCIETLVTTGANVNRTDDWGRTA | 1.76 |
| FHCIETLVTTGANVNFTDDWGRTA | 1.86 |
| FHCIETLVTTGANVNMTDDWGRTA | 1.56 |
| FHCIETLVTTGANVNNTDDWGRTA | 1.97 |
| FHCIETLVTTGANVNATDDWGRTA | 1.98 |
